Data from patent publication US20250019439A1 (Adimab, published 2025).

Columns and labels:
[1] = molecular target: T1, ADI-48576; assay: SPR Carterra, yeast anti-ID
T1 construct: pH-dependent anti-CD3 antibody made in CHO cells
Summary of the method: (§1)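 Anti-human Fc capture chip (amine coupled); anti-CD3 IgG 100 nM, 5 min capture; 25° C, HBSTE. Non-regenerative kinetic cycles, anti-ID dissociation 300s; glycine pH 1.7 regeneration. Double-reference subtraction, 1:1 fit.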

[2] = molecular target: T2, ADI-48592; assay: SPR Carterra, yeast anti-ID
T2 construct: pH-dependent anti-CD3 antibody made in CHO cells
Summary of the method: as §1

[3] = molecular target: T3, CTL-62227; assay: SPR Carterra, yeast anti-ID
T3 construct: also called odronextamab
Summary of the method: as §1

[4] = molecular target: T4, CTL-62228; assay: SPR Carterra, yeast anti-ID
T4 construct: also called glofitamab
Summary of the method: as §1

[5] = molecular target: T5, CTL-62240; assay: SPR Carterra, yeast anti-ID
T5 construct: also called ONO-4685
Summary of the method: as §1

[6] = molecular target: T6, ADI-50024; assay: SPR Carterra avidity, yeast anti-ID
T6 construct: anti-CD3 antibody made in CHO cells, captured by anti-human Fc
Summary of the method: as §1

[7] = molecular target: T7, ADI-70326; assay: SPR Carterra avidity, yeast anti-ID
T7 construct: anti-CD3 antibody made in CHO cells, captured by anti-human Fc
Summary of the method: as §1

[8] = molecular target: T8, ADI-70327; assay: SPR Carterra avidity, yeast anti-ID
T8 construct: anti-CD3 antibody made in CHO cells, captured by anti-human Fc
Summary of the method: as §1

[9] = molecular target: T9, ADI-70330; assay: SPR Carterra avidity, yeast anti-ID
T9 construct: anti-CD3 antibody made in CHO cells, captured by anti-human Fc
Summary of the method: as §1

[10] = molecular target: T10, ADI-67450; assay: SPR Carterra avidity, yeast anti-ID
T10 construct: anti-CD3 antibody made in CHO cells, captured by anti-human Fc
Summary of the method: as §1

[11] = molecular target: T11, ADI-67445; assay: SPR Carterra avidity, yeast anti-ID
T11 construct: anti-CD3 antibody made in CHO cells, captured by anti-human Fc
Summary of the method: as §1

[12] = molecular target: T12, ADI-67447; assay: SPR Carterra avidity, yeast anti-ID
T12 construct: anti-CD3 antibody made in CHO cells, captured by anti-human Fc
Summary of the method: as §1

[13] = molecular target: T13, ADI-26909; assay: SPR Carterra avidity, yeast anti-ID
T13 construct: anti-CD3 antibody made in CHO cells, captured by anti-human Fc
Summary of the method: as §1

[14] = molecular target: T14, ADI-26913 IgG; assay: SPR Carterra avidity, yeast anti-ID
T14 construct: anti-CD3 IgG
Summary of the method: as §1

[15] = molecular target: T15, ADI-26921 IgG; assay: SPR Carterra avidity, yeast anti-ID
T15 construct: anti-CD3 IgG
Summary of the method: as §1

[16] = molecular target: T16, ADI-26916 IgG; assay: SPR Carterra avidity, yeast anti-ID
T16 construct: anti-CD3 IgG
Summary of the method: as §1

[17] = molecular target: T17, ADI-26912; assay: SPR Carterra avidity, yeast anti-ID
T17 construct: anti-CD3 antibody made in CHO cells, captured by anti-human Fc
Summary of the method: as §1

[18] = molecular target: T18, ADI-26924; assay: SPR Carterra avidity, yeast anti-ID
T18 construct: anti-CD3 antibody made in CHO cells, captured by anti-human Fc
Summary of the method: as §1

[19] = molecular target: T19, ADI-26915; assay: SPR Carterra avidity, yeast anti-ID
T19 construct: anti-CD3 antibody made in CHO cells, captured by anti-human Fc
Summary of the method: as §1

[20] = molecular target: T20, ADI-26943; assay: SPR Carterra avidity, yeast anti-ID
T20 construct: anti-CD3 antibody made in CHO cells, captured by anti-human Fc
Summary of the method: as §1

[21] = molecular target: T21, ADI-48587; assay: SPR Carterra avidity, yeast anti-ID
T21 construct: pH-dependent anti-CD3 antibody made in CHO cells
Summary of the method: as §1

[22] = molecular target: T22, ADI-48650; assay: SPR Carterra avidity, yeast anti-ID
T22 construct: pH-dependent anti-CD3 antibody made in CHO cells
Summary of the method: as §1

[23] = molecular target: T23, ADI-74965; assay: SPR Carterra avidity, yeast anti-ID
T23 construct: pH-dependent anti-CD3 antibody made in CHO cells
Summary of the method: as §1

[24] = molecular target: T24, ADI-74966; assay: SPR Carterra avidity, yeast anti-ID
T24 construct: pH-dependent anti-CD3 antibody made in CHO cells
Summary of the method: as §1

[25] = molecular target: T25, ADI-74967; assay: SPR Carterra avidity, yeast anti-ID
T25 construct: pH-dependent anti-CD3 antibody made in CHO cells
Summary of the method: as §1

[26] = molecular target: T26, ADI-74968; assay: SPR Carterra avidity, yeast anti-ID
T26 construct: pH-dependent anti-CD3 antibody made in CHO cells
Summary of the method: as §1

[27] = molecular target: T27, ADI-76357; assay: SPR Carterra avidity, yeast anti-ID
T27 construct: anti-CD3 antibody made in CHO cells, captured by anti-human Fc
Summary of the method: as §1

[28] = molecular target: T28, ADI-76358; assay: SPR Carterra avidity, yeast anti-ID
T28 construct: anti-CD3 antibody made in CHO cells, captured by anti-human Fc
Summary of the method: as §1

[29] = molecular target: T29, ADI-76359; assay: SPR Carterra avidity, yeast anti-ID
T29 construct: anti-CD3 antibody made in CHO cells, captured by anti-human Fc
Summary of the method: as §1

[30] = molecular target: T30, ADI-76360; assay: SPR Carterra avidity, yeast anti-ID
T30 construct: anti-CD3 antibody made in CHO cells, captured by anti-human Fc
Summary of the method: as §1

[31] = molecular target: T31, ADI-76361; assay: SPR Carterra avidity, yeast anti-ID
T31 construct: anti-CD3 antibody made in CHO cells, captured by anti-human Fc
Summary of the method: as §1

[32] = molecular target: T32, ADI-76362; assay: SPR Carterra avidity, yeast anti-ID
T32 construct: anti-CD3 antibody made in CHO cells, captured by anti-human Fc
Summary of the method: as §1

[33] = molecular target: T33, ADI-22523 Fab; assay: BLI; tip anti-ID IgG, solution ADI-22523 Fab
T33 construct: anti-CD3 Fab by papain digestion of the IgG
Summary of the method: (§2)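 Bio-layer interferometry with anti-ID IgG loaded on AHC tips. KD (koff/kon) from 1:1 binding model fit; avid format.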

[34] = molecular target: T34, ADI-22523 IgG; assay: BLI; tip anti-ID IgG, solution ADI-22523 IgG
T34 construct: anti-CD3 IgG
Summary of the method: as §2

[35] = molecular target: T35, ADI-26906 IgG; assay: SPR Carterra avidity, yeast anti-ID, *koff limit
T35 construct: anti-CD3 IgG
Summary of the method: as §1

[36] = molecular target: T36, ADI-26919; assay: SPR Carterra avidity, yeast anti-ID, *koff limit
T36 construct: anti-CD3 antibody made in CHO cells, captured by anti-human Fc
Summary of the method: as §1

[37] = molecular target: T37, ADI-26920 IgG; assay: SPR Carterra avidity, yeast anti-ID, *koff limit
T37 construct: anti-CD3 IgG
Summary of the method: as §1

T13 sequence (VH, as listed by the source limits assumed, chain 1 of 2): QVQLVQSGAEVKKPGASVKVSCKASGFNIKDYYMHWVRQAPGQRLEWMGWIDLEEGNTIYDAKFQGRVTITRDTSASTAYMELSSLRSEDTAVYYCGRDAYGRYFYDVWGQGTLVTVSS
T13 sequence (VL, as listed by the source limits assumed, chain 2 of 2): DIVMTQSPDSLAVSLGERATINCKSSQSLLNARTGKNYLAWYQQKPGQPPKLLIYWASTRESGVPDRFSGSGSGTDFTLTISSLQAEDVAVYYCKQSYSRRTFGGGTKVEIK
T29 sequence (VH, as listed by the source, chain 1 of 2): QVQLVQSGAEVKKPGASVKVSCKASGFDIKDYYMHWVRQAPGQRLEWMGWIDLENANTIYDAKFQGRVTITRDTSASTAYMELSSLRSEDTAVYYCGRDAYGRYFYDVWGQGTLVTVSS
T29 sequence (VL, as listed by the source, chain 2 of 2): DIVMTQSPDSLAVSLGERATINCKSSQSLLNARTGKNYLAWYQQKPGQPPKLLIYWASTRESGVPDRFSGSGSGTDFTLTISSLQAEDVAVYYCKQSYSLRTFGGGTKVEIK
T1 sequence (VH, as listed by the source, chain 1 of 2): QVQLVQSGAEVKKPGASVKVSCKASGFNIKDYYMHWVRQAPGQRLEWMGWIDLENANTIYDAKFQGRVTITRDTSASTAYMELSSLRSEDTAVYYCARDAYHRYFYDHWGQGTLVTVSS
T1 sequence (VL, as listed by the source, chain 2 of 2): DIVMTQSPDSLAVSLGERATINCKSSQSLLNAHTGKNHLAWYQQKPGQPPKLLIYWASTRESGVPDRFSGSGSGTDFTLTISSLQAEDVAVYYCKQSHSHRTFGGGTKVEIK
T18 sequence (VH, as listed by the source, chain 1 of 2): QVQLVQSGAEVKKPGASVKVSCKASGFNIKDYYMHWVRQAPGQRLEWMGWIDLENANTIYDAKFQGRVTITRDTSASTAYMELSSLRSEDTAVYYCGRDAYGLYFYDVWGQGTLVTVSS
T14 sequence (VH, as listed by the source limits assumed, chain 1 of 2): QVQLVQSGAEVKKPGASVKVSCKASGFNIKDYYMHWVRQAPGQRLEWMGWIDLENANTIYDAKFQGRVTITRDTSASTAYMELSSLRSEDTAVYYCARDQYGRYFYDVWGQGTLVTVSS
T23 sequence (VH, as listed by the source, chain 1 of 2): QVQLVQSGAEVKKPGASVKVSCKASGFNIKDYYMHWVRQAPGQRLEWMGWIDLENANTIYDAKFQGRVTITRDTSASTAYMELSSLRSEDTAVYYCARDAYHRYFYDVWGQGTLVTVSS
T23 sequence (VL, as listed by the source, chain 2 of 2): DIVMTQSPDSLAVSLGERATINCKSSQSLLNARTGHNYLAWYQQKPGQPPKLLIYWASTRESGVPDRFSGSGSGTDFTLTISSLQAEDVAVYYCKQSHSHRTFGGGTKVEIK
T26 sequence (VL, as listed by the source, chain 2 of 2): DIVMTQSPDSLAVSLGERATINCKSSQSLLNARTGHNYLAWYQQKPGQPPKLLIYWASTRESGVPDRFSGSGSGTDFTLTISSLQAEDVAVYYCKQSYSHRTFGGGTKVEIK
T2 sequence (VH, as listed by the source, chain 1 of 2): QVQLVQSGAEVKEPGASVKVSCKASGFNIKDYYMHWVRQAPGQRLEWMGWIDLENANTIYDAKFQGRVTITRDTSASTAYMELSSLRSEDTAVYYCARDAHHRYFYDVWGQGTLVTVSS
T2 sequence (VL, as listed by the source, chain 2 of 2): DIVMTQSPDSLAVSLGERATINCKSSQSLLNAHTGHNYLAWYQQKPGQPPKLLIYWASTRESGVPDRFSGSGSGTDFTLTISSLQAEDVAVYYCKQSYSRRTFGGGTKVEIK
T3 sequence (VH, as listed by the source, chain 1 of 2): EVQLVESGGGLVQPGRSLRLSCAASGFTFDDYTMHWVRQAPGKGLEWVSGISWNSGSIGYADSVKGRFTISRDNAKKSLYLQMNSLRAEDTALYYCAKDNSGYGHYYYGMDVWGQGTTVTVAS
T3 sequence (VL, as listed by the source, chain 2 of 2): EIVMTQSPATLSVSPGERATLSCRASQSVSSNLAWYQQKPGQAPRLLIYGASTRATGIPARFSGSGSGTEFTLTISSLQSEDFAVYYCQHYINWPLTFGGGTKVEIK
T34 sequence (VH, as listed by the source limits assumed, chain 1 of 2): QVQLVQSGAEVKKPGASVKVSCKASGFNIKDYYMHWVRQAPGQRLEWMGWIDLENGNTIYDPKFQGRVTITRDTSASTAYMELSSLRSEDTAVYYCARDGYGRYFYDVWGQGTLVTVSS
T34 sequence (VL, as listed by the source limits assumed, chain 2 of 2): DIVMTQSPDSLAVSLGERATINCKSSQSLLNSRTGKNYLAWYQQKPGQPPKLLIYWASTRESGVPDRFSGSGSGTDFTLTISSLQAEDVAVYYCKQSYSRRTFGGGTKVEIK
T5 sequence (VH, as listed by the source, chain 1 of 2): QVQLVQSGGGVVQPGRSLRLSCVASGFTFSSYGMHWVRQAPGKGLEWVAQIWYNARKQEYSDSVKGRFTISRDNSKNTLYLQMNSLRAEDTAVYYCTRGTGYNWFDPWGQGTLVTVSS
T5 sequence (VL, as listed by the source, chain 2 of 2): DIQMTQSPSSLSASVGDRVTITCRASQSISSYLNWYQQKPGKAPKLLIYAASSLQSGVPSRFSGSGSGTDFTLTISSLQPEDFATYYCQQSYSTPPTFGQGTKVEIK
T31 sequence (VH, as listed by the source, chain 1 of 2): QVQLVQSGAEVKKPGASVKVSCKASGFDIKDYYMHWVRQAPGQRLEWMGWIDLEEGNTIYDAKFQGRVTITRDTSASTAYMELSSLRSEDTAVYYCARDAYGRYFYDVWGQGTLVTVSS
T11 sequence (VH, as listed by the source limits assumed, chain 1 of 2): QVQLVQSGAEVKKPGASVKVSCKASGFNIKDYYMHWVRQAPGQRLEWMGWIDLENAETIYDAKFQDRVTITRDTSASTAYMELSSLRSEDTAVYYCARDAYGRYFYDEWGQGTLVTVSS
T8 sequence (VH, as listed by the source limits assumed, chain 1 of 2): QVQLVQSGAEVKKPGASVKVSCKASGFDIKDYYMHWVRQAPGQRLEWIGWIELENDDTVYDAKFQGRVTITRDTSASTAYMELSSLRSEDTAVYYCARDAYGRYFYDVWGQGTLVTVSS
T8 sequence (VL, as listed by the source limits assumed, chain 2 of 2): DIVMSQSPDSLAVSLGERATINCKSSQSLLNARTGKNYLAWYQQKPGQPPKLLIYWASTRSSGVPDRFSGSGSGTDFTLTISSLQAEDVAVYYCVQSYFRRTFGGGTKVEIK
T17 sequence (VH, as listed by the source, chain 1 of 2): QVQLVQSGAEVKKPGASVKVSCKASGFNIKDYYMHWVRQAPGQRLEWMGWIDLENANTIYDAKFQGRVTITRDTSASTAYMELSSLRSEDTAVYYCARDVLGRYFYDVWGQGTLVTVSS
T32 sequence (VH, as listed by the source, chain 1 of 2): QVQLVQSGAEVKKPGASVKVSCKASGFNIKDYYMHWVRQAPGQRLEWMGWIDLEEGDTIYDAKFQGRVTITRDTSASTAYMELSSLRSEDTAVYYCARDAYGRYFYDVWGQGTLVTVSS
T20 sequence (VH, as listed by the source, chain 1 of 2): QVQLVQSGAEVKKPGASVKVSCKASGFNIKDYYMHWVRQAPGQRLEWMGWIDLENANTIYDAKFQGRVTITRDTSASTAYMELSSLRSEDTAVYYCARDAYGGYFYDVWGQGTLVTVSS
T20 sequence (VL, as listed by the source, chain 2 of 2): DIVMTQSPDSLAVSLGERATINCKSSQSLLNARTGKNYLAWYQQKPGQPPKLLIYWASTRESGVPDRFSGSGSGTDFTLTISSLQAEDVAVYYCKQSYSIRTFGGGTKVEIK

B1: ADI-34133 (antibody, V domains shown)
VH: QVQLVQSGAEVKKPGSSVKVSCKASGGTFSSYAISWVRQAPGQGLEWMGGIIPIFGTANYAQKFQGRVTITADESTSTAYMELSSLRSEDTAVYYCARGAPNYYGSGGYDDGWFDPWGQGTLVTVSS
VL: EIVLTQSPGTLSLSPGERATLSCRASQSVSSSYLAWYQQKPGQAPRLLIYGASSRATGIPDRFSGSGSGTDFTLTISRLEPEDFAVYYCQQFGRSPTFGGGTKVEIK
notes: anti-ID IgG
[1]
  binding result: no binding (tested: up to 200 nM)
[2]
  binding result: no binding (tested: up to 200 nM)
[3]
  binding result: no binding (tested: up to 200 nM)
[4]
  binding result: no binding (tested: up to 200 nM)
[5]
  binding result: no binding (tested: up to 200 nM)
[6]
  Kd: 1.1 nM
[7]
  binding result: binds
[8]
  binding result: binds
[9]
  Kd: 1.9 nM
[10]
  Kd: 2 nM
[11]
  Kd: 1.1 nM
[12]
  Kd: 1.3 nM
[13]
  Kd: 1.3 nM
[14]
  Kd: 1.9 nM
[15]
  Kd: 0.96 nM
[16]
  binding result: binds
[17]
  Kd: 52 nM
[18]
  Kd: 1.1 nM
[19]
  binding result: binds
[20]
  Kd: 0.65 nM
[21]
  Kd: 20 nM
[22]
  Kd: 40 nM
[23]
  Kd: 18 nM
[24]
  binding result: binds
[25]
  Kd: 1.9 nM
[26]
  Kd: 8.2 nM
[27]
  Kd: 0.96 nM
[28]
  binding result: binds
[29]
  Kd: 0.24 nM
[30]
  Kd: 1.7 nM
[31]
  Kd: 0.91 nM
[32]
  Kd: 2 nM
[33]
  Kd: 9.59 nM
[34]
  Kd: 0.59 nM
[35]
  Kd: 0.3 nM
[36]
  Kd: 0.35 nM
[37]
  Kd: 0.24 nM
